Target: LhgR, L-2-HG catabolism regulator of Pseudomonas putida W619 (His6-tagged) (Pseudomonas putida W619)
Assay: SEC

## LhgR, L-2-HG catabolism regulator of Pseudomonas putida W619 (His6-tagged) (natural protein)
  stoichiometry N: 2
